Results as given in US20150203577A1 (Chugai, published 2015).
Positions count from the first letter of the chain named.

T1: mouse FcγRIII (mouse, UniProt P08508 31-215)
T1 construct: Extracellular domain with C-terminal His tag; also called mFcγRIII; mFcgRIII
T1 chain: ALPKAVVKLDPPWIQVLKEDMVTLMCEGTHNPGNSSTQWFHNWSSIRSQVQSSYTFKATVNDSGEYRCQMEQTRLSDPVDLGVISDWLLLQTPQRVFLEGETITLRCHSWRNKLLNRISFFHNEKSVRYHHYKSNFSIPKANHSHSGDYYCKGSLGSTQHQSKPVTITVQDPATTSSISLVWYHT

T2: mouse FcγRII (mouse, UniProt P08101 30-210)
T2 construct: Extracellular domain with C-terminal His tag; also called mFcγRII; mFcgRII
T2 sequence: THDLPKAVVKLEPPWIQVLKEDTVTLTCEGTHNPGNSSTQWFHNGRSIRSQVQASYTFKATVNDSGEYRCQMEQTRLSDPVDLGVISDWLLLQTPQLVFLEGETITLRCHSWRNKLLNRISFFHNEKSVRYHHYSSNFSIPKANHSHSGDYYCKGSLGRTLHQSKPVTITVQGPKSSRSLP

B1: MB754 (antibody, mouse IgG1, kappa)
heavy: QVQLQESGPGLVKPSETLSLTCAVSGHSISHDHAWSWVRQPPGEGLEWIGFISYSGITNYNPSLQGRVTISRDNSKNTLYLQMNSLRAEDTAVYYCARSLARTTAMDYWGEGTLVTVSSAKTTPPSVYPLAPGSAAQTNSMVTLGCLVKGYFPEPVTVTWNSGSLSSGVHTFPAVLQSDLYTLSSSVTVPSSTWPSETVTCNVAHPASSTKVDKKIVPRDCGCKPCICEPNEVELVFIFPPKPKDVLTITLTPKVTCVVVDISKDDPEVQFSWFVDDVEVHTAQTQPREEQFNSTFRSVSELPIMHQDWLNGKEFKCRVDSAAFPAPIEKTISKTKGRPKAPQVYTIPPPKEQMAKDKVSLTCMITDFFPEDITVEWQWNGQPAENYKNTQPIMDTDGSYFVYSKLNVQKSNWEAGNTFTCSVLHEGLHNHHTEKSLSHSPGK
light: not shown
notes: CH name; VH H237 + CH, L chain MRAL-k0; copies: 2 + 2
B2: MB755 (antibody, mouse IgG1, kappa)
heavy: B1 heavy with S294L
light: not shown
notes: as for B1
B3: MB768 (antibody, mouse IgG1, kappa)
heavy: B1 heavy with D320N, A326Q
light: not shown
notes: as for B1
B4: MB766 (antibody, mouse IgG1, kappa)
heavy: B1 heavy with D320M
light: not shown
notes: as for B1
B5: MB774 (antibody, mouse IgG1, kappa)
heavy: B1 heavy with D320N, E329V
light: not shown
notes: as for B1
B6: MB771 (antibody, mouse IgG1, kappa)
heavy: B1 heavy with D320N, P327Y
light: not shown
notes: as for B1
B7: MB759 (antibody, mouse IgG1, kappa)
heavy: B1 heavy with K330R
light: not shown
notes: as for B1
B8: MB761 (antibody, mouse IgG1, kappa)
heavy: B1 heavy with S294M, K330R
light: not shown
notes: as for B1
B9: MB763 (antibody, mouse IgG1, kappa)
heavy: B1 heavy with F292N, D320N
light: not shown
notes: as for B1
B10: MB765 (antibody, mouse IgG1, kappa)
heavy: B1 heavy with D320L
light: not shown
notes: as for B1
B11: MB773 (antibody, mouse IgG1, kappa)
heavy: B1 heavy with D320N, E329Y
light: not shown
notes: as for B1
B12: MB770 (antibody, mouse IgG1, kappa)
heavy: B1 heavy with D320N, P327F
light: not shown
notes: as for B1
B13: MB756 (antibody, mouse IgG1, kappa)
heavy: B1 heavy with S294L, D320N, K330R
light: not shown
notes: as for B1
B14: MB764 (antibody, mouse IgG1, kappa)
heavy: B1 heavy with F292T, D320N
light: not shown
notes: as for B1
B15: MB767 (antibody, mouse IgG1, kappa)
heavy: B1 heavy with D320N, A326G
light: not shown
notes: as for B1
B16: MB772 (antibody, mouse IgG1, kappa)
heavy: B1 heavy with D320N, E329N
light: not shown
notes: as for B1
B17: MB758 (antibody, mouse IgG1, kappa)
heavy: B1 heavy with S294M, D320N, K330R
light: not shown
notes: as for B1
B18: MB760 (antibody, mouse IgG1, kappa)
heavy: B1 heavy with S294L, K330R
light: not shown
notes: as for B1
B19: MB762 (antibody, mouse IgG1, kappa)
heavy: B1 heavy with F292E, D320N
light: not shown
notes: as for B1
B20: MB757 (antibody, mouse IgG1, kappa)
heavy: B1 heavy with S294M
light: not shown
notes: as for B1
B21: MB775 (antibody, mouse IgG1, kappa)
heavy: B1 heavy with D320N, T331N
light: not shown
notes: as for B1
B22: MB769 (antibody, mouse IgG1, kappa)
heavy: B1 heavy with D320N, P327D
light: not shown
notes: as for B1

Target: T1, mouse FcγRIII
Assay: SPR (Biacore T200); KD of H237-mIgG1/MRAL-k0 / KD of variant
Excerpt: (§1) The antibody H chain variable region used was the variable region H237 (SEQ ID NO: 1) of the H chain VH3-IgG1 of the anti-IL-6 receptor antibody Fv4-IgG1 described in WO2009/125825. The antibody L chain commonly used was the L chain MRAL-k0 (SEQ ID NO: 2) of the anti-IL-6 receptor antibody tocilizumab. […] These variants were expressed and purified by the method of Reference Example 1 and evaluated for their binding to mFcγRII and mFcγRIII by the method of Reference Example 2 using Biacore T200.
(§2) Each altered antibody was analyzed for its interaction with each Fcγ receptor prepared above using Biacore T100 (GE Healthcare Japan Corp.), Biacore T200 (GE Healthcare Japan Corp.), Biacore A100, or Biacore 4000. The running buffer used was HBS-EP+ (GE Healthcare Japan Corp.). The assay temperature was set to 25° C. The sensor chips used were chips prepared by immobilizing Protein L (ACTIGEN or BioVision) onto Series S Sensor Chip CM5 (GE Healthcare Japan Corp.) or Series S Sensor Chip CM4 (GE Healthcare Japan Corp.) by the amine coupling method.

| relative mFcγRIII-binding activity (mIgG1 = 1) [fold] | Binder |
| --- | --- |
| 0.25 | B1 |
| 0.11 | B2 |
| 0.14 | B3 |
| 0.27 | B4 |
| 0.18 | B5 |
| 0.26 | B6 |
| 0.44 | B7 |
| 0.18 | B8 |
| 0.07 | B9 |
| 0.11 | B10 |
| 0.22 | B11 |
| 0.24 | B12 |
| 0.21 | B13 |
| 0.05 | B14 |
| 0.03 | B15 |
| 0.07 | B16 |
| 0.13 | B17 |
| 0.28 | B18 |
| 0.09 | B19 |
| 0.09 | B20 |
| 0.18 | B21 |
| 0.06 | B22 |

Target: T2, mouse FcγRII
Assay: as above
Excerpt: as §1, §2

| relative mFcγRII-binding activity (mIgG1 = 1) [fold] | Binder |
| --- | --- |
| 21 | B1 |
| 7.6 | B2 |
| 5.4 | B3 |
| 14 | B4 |
| 9.4 | B5 |
| 13.8 | B6 |
| 33.8 | B7 |
| 13.4 | B8 |
| 3.4 | B9 |
| 5.3 | B10 |
| 12.7 | B11 |
| 13.3 | B12 |
| 10.6 | B13 |
| 2.5 | B14 |
| 1.8 | B15 |
| 3.5 | B16 |
| 9.8 | B17 |
| 14.1 | B18 |
| 4.4 | B19 |
| 7.6 | B20 |
| 9.1 | B21 |
| 3.3 | B22 |

Target: T1, mouse FcγRIII
Assay: SPR (Biacore T200); KD of H237-MB630/MRAL-k0 / KD of variant
Excerpt: as §1, §2
(§3) In order to calculate the KD value of each altered antibody for FcγR, kinetic analysis was conducted according to the following method: first, the antibody of interest was captured onto any of these chips and allowed to interact with mFcγR diluted with a running buffer. For the obtained sensorgram, the assay results were globally fit into the 1:1 Langmuir binding model using Biacore Evaluation Software to calculate an association rate constant ka (L/mol/s) and a dissociation rate constant kd (1/s). From these values, the dissociation constant KD (mol/L) was calculated.

| Relative mFcγRIII-binding activity (MB630 = 1) [fold] | Binder |
| --- | --- |
| 1.28 | B1 |
| 0.58 | B2 |
| 0.81 | B3 |
| 1.55 | B4 |
| 1.05 | B5 |
| 1.53 | B6 |
| 2.25 | B7 |
| 0.92 | B8 |
| 0.41 | B9 |
| 0.64 | B10 |
| 1.25 | B11 |
| 1.4 | B12 |
| 1.09 | B13 |
| 0.32 | B14 |
| 0.19 | B15 |
| 0.42 | B16 |
| 0.69 | B17 |
| 1.42 | B18 |
| 0.51 | B19 |
| 0.45 | B20 |
| 1.02 | B21 |
| 0.38 | B22 |

Target: T2, mouse FcγRII
Assay: as above
Excerpt: as §1, §2, §3

| Relative mFcγRII-binding activity (MB630 = 1) [fold] | Binder |
| --- | --- |
| 1.26 | B1 |
| 0.45 | B2 |
| 0.5 | B3 |
| 1.29 | B4 |
| 0.87 | B5 |
| 1.27 | B6 |
| 2.03 | B7 |
| 0.81 | B8 |
| 0.31 | B9 |
| 0.49 | B10 |
| 1.17 | B11 |
| 1.23 | B12 |
| 0.64 | B13 |
| 0.23 | B14 |
| 0.16 | B15 |
| 0.32 | B16 |
| 0.59 | B17 |
| 0.85 | B18 |
| 0.4 | B19 |
| 0.46 | B20 |
| 0.84 | B21 |
| 0.31 | B22 |
